Stoichiometry N data for one substance are collected here from paper PMC8420761.

This assay addresses Mycobacterium tuberculosis H37Rv HigA2 antitoxin (Mycobacterium tuberculosis H37Rv) (UniProt O53467). Nature of the assay: not stated; in solution; purified MtHigA2.

Take “Mycobacterium tuberculosis H37Rv HigA2 antitoxin (from UniProt O53467 1-101) (natural protein)”: the stoichiometry N amounted to 2.

The term stoichiometry N denotes the number of molecules, sites or subunits per partner or assembly.
